{"source": "patent US9926369B2", "about": "“Methods for treating hepatocellular cancer by administering an anti-Ang-2 antibody” (Regeneron Pharmaceuticals, Inc., priority 2009, dated 2018)", "key": {"WT Ang-2FD-mFc construct": {"target": "WT Ang-2FD-mFc construct (Homo sapiens, UniProt O15123)", "sequence (O15123 with tags, fused parts or gaps)": "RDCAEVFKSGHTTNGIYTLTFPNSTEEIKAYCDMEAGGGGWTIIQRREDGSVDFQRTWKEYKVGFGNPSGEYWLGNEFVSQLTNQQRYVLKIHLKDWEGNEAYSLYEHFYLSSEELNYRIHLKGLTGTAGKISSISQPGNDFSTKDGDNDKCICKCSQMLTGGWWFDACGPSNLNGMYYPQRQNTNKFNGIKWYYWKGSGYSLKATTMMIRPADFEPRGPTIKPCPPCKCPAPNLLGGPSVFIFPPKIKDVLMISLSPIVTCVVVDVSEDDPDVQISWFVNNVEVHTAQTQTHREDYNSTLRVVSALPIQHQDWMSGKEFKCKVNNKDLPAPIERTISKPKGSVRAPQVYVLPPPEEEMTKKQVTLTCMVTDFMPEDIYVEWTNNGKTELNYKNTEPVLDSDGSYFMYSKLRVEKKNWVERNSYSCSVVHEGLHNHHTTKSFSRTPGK", "test": "Ang-2FD-mFc point mutant binding experiment (SPR), wild-type", "conditions": "WT hAng-2FD-mFc captured; antibody/peptibody at 100 nM; 25° C.", "excerpt": "To further characterize binding between hAng2 and anti-hAng2 mAbs of the invention, seven variant hAng2-FD-mFc proteins were generated, each containing a single point mutation. Amino acids selected for mutation were based on the difference in sequence between hAng-2 and hAng-1 in the region that interacts with hTie-2 (FIG. 1). In particular, amino acids within the fibrinogen-like domain (FD) of Ang-2 which are believed to interact with Tie-2 based on crystal structure analysis, but which differ from the corresponding amino acid in Ang-1, were individually mutated to the corresponding hAng-1 residue. The results of this example indicate the amino acid residues of hAng-2 with which the Ang-2 preferential binding antibodies interact.\nIn this experiment, each of the seven hAng-2FD-mFc mutant proteins were captured (˜147-283 RU) on an anti-mouse-Fc surface created through direct chemical coupling to a BIACORE™ chip. Then each Ang-2 antibody (or peptibody, as the case may be) at 100 nM was injected over the captured mFc-tagged hAng-2FD protein surface at a flowrate of 50 μl/min for 180 sec, and the dissociation of variant hAng2-FD-mFc and antibody was monitored in real time for 20 min at 25° C."}, "[1]": {"system": "Monkey Ang-2FD-hFc binding to hTie-2-mFc", "sequence (as listed by the source)": "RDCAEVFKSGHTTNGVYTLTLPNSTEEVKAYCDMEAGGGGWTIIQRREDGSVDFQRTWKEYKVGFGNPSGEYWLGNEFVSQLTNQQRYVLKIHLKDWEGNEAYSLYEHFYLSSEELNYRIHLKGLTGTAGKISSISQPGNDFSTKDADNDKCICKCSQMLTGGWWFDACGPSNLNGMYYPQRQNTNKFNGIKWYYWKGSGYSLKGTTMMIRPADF", "sequence (Q02763 with tags, fused parts or gaps Q346P/T695I partner limits assumed)": "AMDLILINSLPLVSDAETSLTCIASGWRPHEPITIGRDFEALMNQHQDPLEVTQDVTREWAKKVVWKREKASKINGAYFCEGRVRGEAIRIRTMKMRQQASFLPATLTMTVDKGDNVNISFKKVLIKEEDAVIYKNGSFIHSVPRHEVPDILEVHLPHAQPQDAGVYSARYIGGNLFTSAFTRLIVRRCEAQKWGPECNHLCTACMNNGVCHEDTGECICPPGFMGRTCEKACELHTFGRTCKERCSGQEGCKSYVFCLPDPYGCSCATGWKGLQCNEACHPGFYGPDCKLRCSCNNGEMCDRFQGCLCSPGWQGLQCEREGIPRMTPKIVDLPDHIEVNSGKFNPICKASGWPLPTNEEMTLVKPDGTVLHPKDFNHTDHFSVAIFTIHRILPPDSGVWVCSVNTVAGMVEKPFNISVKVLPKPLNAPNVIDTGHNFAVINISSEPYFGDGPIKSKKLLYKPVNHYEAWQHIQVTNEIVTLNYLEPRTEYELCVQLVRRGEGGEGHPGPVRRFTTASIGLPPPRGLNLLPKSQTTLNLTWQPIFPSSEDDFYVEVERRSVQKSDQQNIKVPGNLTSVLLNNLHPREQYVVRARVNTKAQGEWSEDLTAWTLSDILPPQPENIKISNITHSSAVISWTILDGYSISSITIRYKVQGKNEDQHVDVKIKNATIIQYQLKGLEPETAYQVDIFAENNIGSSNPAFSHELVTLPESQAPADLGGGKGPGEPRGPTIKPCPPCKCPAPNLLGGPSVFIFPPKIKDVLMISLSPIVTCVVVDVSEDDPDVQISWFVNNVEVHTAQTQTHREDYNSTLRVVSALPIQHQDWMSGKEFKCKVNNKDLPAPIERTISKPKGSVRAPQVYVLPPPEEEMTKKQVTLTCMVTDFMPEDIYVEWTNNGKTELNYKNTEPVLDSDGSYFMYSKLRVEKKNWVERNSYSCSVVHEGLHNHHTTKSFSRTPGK", "test": "ELISA blocking of monkey Ang-2FD-hFc binding to hTie-2-mFc", "type": "biochemical", "conditions": "16.67 nM antibody; 2 nM Ang-2FD-hFc", "experimental": "Tie-2 is a natural receptor for Ang-2. Anti-Ang-2 antibodies were tested for their ability to block Ang-2 binding to human Tie-2 (hTie-2). hTie-2-mFc (a chimeric construct consisting of human Tie-2 conjugated to mouse IgG; SEQ ID NO:525) was coated onto 96-well plates at a concentration of 2 μg/ml and incubated overnight followed by washing four times in wash buffer (PBS with 0.05% Tween-20). The plate was then blocked with PBS (Irvine Scientific, Santa Ana, Calif.) containing 0.5% BSA (Sigma-Aldrich Corp., St. Louis, Mo.) for one hour at room temperature. In a separate plate, purified anti-Ang-2 antibodies, at a starting concentration of 50 nM, were serially diluted by a factor of three across the plate. Human, mouse or monkey Ang-2FD protein conjugated to human IgG (Ang-2FD-hFc) were added to final concentrations of 2 nM, 8 nM, or 2 nM respectively and incubated for one hour at room temperature. The antibody/Ang-2FD-Fc mixture was then added to the plate containing hTie-2-mFc and incubated for one hour at room temperature. Detection of Ang-2FD-hFc bound to hTie-2-mFc protein was determined with Horse-Radish Peroxidase (HRP) conjugated to a-human IgG antibody (Jackson Immuno Research Lab, West Grove, Pa.) and developed by standard colorimetric response using tetramethylbenzidine (TMB) substrate (BD Biosciences, San Jose, Calif.). Absorbance was read at OD450 for 0.1 sec."}, "Monomeric hAng-2FD": {"target": "T1, Monomeric hAng-2FD (Homo sapiens, UniProt O15123)", "T1 sequence (O15123 282-496 limits assumed)": "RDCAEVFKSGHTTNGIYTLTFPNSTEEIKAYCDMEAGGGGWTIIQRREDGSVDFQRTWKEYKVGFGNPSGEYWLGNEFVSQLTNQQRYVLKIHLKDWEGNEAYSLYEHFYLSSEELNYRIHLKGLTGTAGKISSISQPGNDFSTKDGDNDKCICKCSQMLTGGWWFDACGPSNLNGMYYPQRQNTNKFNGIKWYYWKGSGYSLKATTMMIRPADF", "test": "SPR binding to monomeric hAng-2FD at 25° C. and 37° C.", "experimental": "Additional experiments were conducted to measure the binding properties of selected anti-Ang-2 antibodies to monomeric hAng-2FD at 25° C. and 37° C. Each selected antibody or control construct was captured at a flow rate of 40 μL/min for 1 minute on a goat anti-human IgG polyclonal antibody surface created through direct chemical coupling to a BIACORE™ chip to form a captured antibody surface. Human Ang-2FD at a concentration of 500 nM or 7.8 nM was injected over the captured antibody surface at a flowrate of 60 μL/min for 3 minutes, and antigen-antibody dissociation was monitored in real time for 20 minutes at either 25° C. or 37° C."}, "hAng-2-WT": {"target": "T2, hAng-2-WT (Homo sapiens, UniProt O15123)", "T2 construct": "wild-type human Ang-2 (hAng-2-WT)", "T2 sequence (O15123 19-496)": "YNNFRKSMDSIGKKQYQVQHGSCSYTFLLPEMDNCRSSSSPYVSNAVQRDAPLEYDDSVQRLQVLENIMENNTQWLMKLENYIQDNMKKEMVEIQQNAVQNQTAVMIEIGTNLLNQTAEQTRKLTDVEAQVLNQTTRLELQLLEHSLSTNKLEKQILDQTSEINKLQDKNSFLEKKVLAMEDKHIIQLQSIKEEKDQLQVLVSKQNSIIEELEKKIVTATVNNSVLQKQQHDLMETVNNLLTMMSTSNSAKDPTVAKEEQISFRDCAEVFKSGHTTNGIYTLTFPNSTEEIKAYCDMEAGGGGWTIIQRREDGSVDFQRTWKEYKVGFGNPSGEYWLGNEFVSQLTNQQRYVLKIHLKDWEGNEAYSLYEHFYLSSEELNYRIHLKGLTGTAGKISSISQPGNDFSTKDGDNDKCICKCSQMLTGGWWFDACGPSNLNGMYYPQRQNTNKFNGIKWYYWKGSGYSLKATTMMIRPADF", "test": "SPR binding to full-length wild-type human Ang-2 (preferential binding)", "experimental": "Binding experiments (plasmon resonance assays) were conducted to ascertain whether selected antibodies bound to both Ang-2 and Ang-1 or if they preferentially bound to Ang-2 only. Each selected antibody or control construct was captured at a flow rate of 40 μL/min for 1 minute on a goat anti-human IgG polyclonal antibody surface created through direct chemical coupling to a BIACORE™ chip to form a captured antibody surface. Full-length wild-type human Ang-1 or Ang-2 at a concentration of 25 nM or 0.78 nM were injected over the captured antibody surface at a flowrate of 60 μL/min for 3 minutes, and antigen-antibody dissociation was monitored in real time for 20 minutes at either 25° C. or 37° C."}}, "note": "“And” between values parts separate entries of the source, which are not always exact repeats. Equal entries are not always repeated.", "data": [{"substance": "H1H685P: human anti-Ang-2 antibody, HCVR/LCVR SEQ ID NOs 18/20; also referred to as mAb1 [Antibody H1H685P]", "values": [{"measurement": "Kd", "setting": "WT Ang-2FD-mFc construct", "value": 0.0223, "unit": "nM"}, {"measurement": "RU", "setting": "WT Ang-2FD-mFc construct", "value": 210.70, "unit": "RU"}, {"measurement": "Percent Blocking of Ang-2FD Binding to Tie-2, Monkey Ang-2FD-hFc", "setting": "[1]", "value": 62.2, "unit": "%"}, {"measurement": "Kd", "setting": "Monomeric hAng-2FD; 25° C.", "value": 0.336, "unit": "nM"}, {"measurement": "ka, binding to monomeric hAng-2FD", "setting": "Monomeric hAng-2FD; 25° C.", "value": 244000, "unit": "M/s"}, {"measurement": "kd, binding to monomeric hAng-2FD", "setting": "Monomeric hAng-2FD; 25° C.", "value": "7.96e-05", "unit": "s⁻¹"}, {"measurement": "Kd", "setting": "Monomeric hAng-2FD; 37° C.", "value": 0.342, "unit": "nM"}, {"measurement": "ka, binding to monomeric hAng-2FD", "setting": "Monomeric hAng-2FD; 37° C.", "value": 406000, "unit": "M/s"}, {"measurement": "kd, binding to monomeric hAng-2FD", "setting": "Monomeric hAng-2FD; 37° C.", "value": 0.000139, "unit": "s⁻¹"}, {"measurement": "kd, binding to hAng-2-WT", "setting": "hAng-2-WT; 25° C.", "value": "1.6e-05 s⁻¹ and 8.5e-06 s⁻¹"}, {"measurement": "kd, binding to hAng-2-WT", "setting": "hAng-2-WT; 37° C.", "value": "3.76e-05 s⁻¹ and 2.16e-05 s⁻¹"}]}]}
